Results as given in publication PMC5951972.

Molecular target: MBP-TSR4+5, recombinant thrombospondin repeats 4 and 5 of human properdin expressed in tandem, fused to maltose-binding protein (human)
Experiment: SEC

percent migrating as dimer: 40%
stoichiometry N: 2
Substance: MBP-TSR4+5, recombinant thrombospondin repeats 4 and 5 of human properdin expressed in tandem, fused to maltose-binding protein (domain or fragment)
